For data set [1], the system named is HeLa Kyoto. The experiment in a line: melting temperature (median over replicates), in situ; higher = more thermally stable.
Data set [2] relates to HeLa Kyoto. In words: solubility in G1/S (NP-40 vs SDS abundance) (log2 ratio); higher = more soluble. The conditions noted are these: cell cycle stage: G1/S.
The subject of data set [3] is HeLa Kyoto. The experiment in a line: solubility change mitosis vs G1/S (difference of NP-40 vs SDS log2 ratios) (log2 ratio difference); higher = more soluble in mitosis.
Data set [4] concerns HeLa Kyoto. The experiment in a line: thermal stability score vs G1/S (z-score of summed log2 fold changes over temperatures); higher = more thermally stable than in G1/S.
[5] abbreviates: cell cycle stage: early G1 (4.5 h after nocodazole release).
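Wherever melting temperature (median over replicates), in situ is given: HeLa Kyoto cells synchronized by double thymidine or nocodazole block, proteins quantified by TMT10plex mass spectrometry, three independent biological replicates.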
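Wherever solubility change mitosis vs G1/S (difference of NP-40 vs SDS log2 ratios) is given: synchronized HeLa Kyoto cells (double thymidine block for G1/S, nocodazole release for mitosis), protein amounts in NP-40 versus SDS lysates quantified by mass spectrometry, three biological replicates.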
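Wherever solubility in G1/S (NP-40 vs SDS abundance) is given: HeLa Kyoto cells arrested at G1/S by double thymidine block, proteins quantified by TMT10plex mass spectrometry in mild NP-40 versus SDS extracts, three biological replicates.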
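Wherever thermal stability score vs G1/S (z-score of summed log2 fold changes over temperatures) is given: synchronized HeLa Kyoto cells, proteins quantified by TMT10plex mass spectrometry, three biological replicates, mitosis taken 0.5 h after nocodazole release, G1/S directly after double thymidine block.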

Regarding “MVDPVGFAEAWKAQFPDSEPPRMELRSVGDIEQELERCKASIRRLEQEVNQERFRMIYLQTLLAKEKKSYDRQRWGFRRAAQAPDGASEPRASASRPQPAPADGADPPPAEEPEARPDGEGSPGKARPGTARRPGAAASGERDDRGPPASVAALRSNFERIRKGHGQPGADAEKPFYVNVEFHHERGLVKVNDKEVSDRISSLGSQAMQMERKKSQHGAGSSVGDASRPPYRGRSSESSCGVDGDYEDAELNPRFLKDNLIDANGGSRPPWPPLEYQPYQSIYVGGMMEGEGKGPLLRSQSTSEQEKRLTWPRRSYSPRSFEDCGGGYTPDCSSNENLTSSEEDFSSGQSSRVSPSPTTYRMFRDKSRSPSQNSQQSFDSSSPPTPQCHKRHRHCPVVVSEATIVGVRKTGQIWPNDGEGAFHGDADGSFGTPPGYGCAADRAEEQRRHQDGLPYIDDSPSSSPHLSSKGRGSRDALVSGALESTKASELDLEKGLEMRKWVLSGILASEETYLSHLEALLLPMKPLKAAATTSQPVLTSQQIETIFFKVPELYEIHKEFYDGLFPRVQQWSHQQRVGDLFQKLASQLGVYRAFVDNYGVAMEMAEKCCQANAQFAEISENLRARSNKDAKDPTTKNSLETLLYKPVDRVTRSTLVLHDLLKHTPASHPDHPLLQDALRISQNFLSSINEEITPRRQSMTVKKGEHRQLLKDSFMVELVEGARKLRHVFLFTDLLLCTKLKKQSGGKTQQYDCKWYIPLTDLSFQMVDELEAVPNIPLVPDEELDALKIKISQIKNDIQREKRANKGSKATERLKKKLSEQESLLLLMSPSMAFRVHSRNGKSYTFLISSDYERAEWRENIREQQKKCFRSFSLTSVELQMLTNSCVKLQTVHSIPLTINKEDDESPGLYGFLNVIVHSATGFKQSSNLYCTLEVDSFGYFVNKAKTRVYRDTAEPNWNEEFEIELEGSQTLRILCYEKCYNKTKIPKEDGESTDRLMGKGQVQLDPQALQDRDWQRTVIAMNGIEVKLSVKFNSREFSLKRMPSRKQTGVFGVKIAVVTKRERSKVPYIVRQCVEEIERRGMEEVGIYRVSGVATDIQALKAAFDVNNKDVSVMMSEMDVNAIAGTLKLYFRELPEPLFTDEFYPNFAEGIALSDPVAKESCMLNLLLSLPEANLLTFLFLLDHLKRVAEKEAVNKMSLHNLATVFGPTLLRPSEKESKLPANPSQPITMTDSWSLEVMSQVQVLLYFLQLEAIPAPDSKRQSILFSTEV [BCR]”, the melting temperature with HeLa Kyoto [1] (cell cycle stage: G1/S) worked out at 49 °C; in the data set with HeLa Kyoto [1] (cell cycle stage: mitosis), 49.2 °C. In the data set on HeLa Kyoto [2], the “solubility in G1/S (log2)” value was -0.109. Besides, the “solubility change mitosis (log2)” value in the data set with HeLa Kyoto [3] was -0.114. Further, the figures for the thermal stability score with HeLa Kyoto [4] (setting [5]) and in the data set with HeLa Kyoto [4] (cell cycle stage: mitosis) were 0.827 and 1.59, respectively.

Take “MVEDELALFDKSINEFWNKFKSTDTSCQMAGLRDTYKDSIKAFAEKLSVKLKEEERMVEMFLEYQNQISRQNKLIQEKKDNLLKLIAEVKGKKQELEVLTANIQDLKEEYSRKKETISTANKANAERLKRLQKSADLYKDRLGLEIRKIYGEKLQFIFTNIDPKNPESPFMFSLHLNEARDYEVSDSAPHLEGLAEFQENVRKTNNFSAFLANVRKAFTATVYN [SPC25]”: the melting temperature with HeLa Kyoto [1] (cell cycle stage: G1/S) came out at 49.5 °C; in the data set with HeLa Kyoto [1] (cell cycle stage: mitosis), 49.6 °C. Moreover, the “solubility in G1/S (log2)” value with HeLa Kyoto [2] amounted to 0.585. For the same sequence, the “solubility change mitosis (log2)” value with HeLa Kyoto [3] is 0.0937. Moreover, the thermal stability score in the data set with HeLa Kyoto [4] (setting [5]) was -0.881; with HeLa Kyoto [4] (cell cycle stage: mitosis), -0.275.

Turning to “MVEEVQKHSVHTLVFRSLKRTHDMFVADNGKPVPLDEESHKRKMAIKLRNEYGPVLHMPTSKENLKEKGPQNATDSYVHKQYPANQGQEVEYFVAGTHPYPPGPGVALTADTKIQRMPSESAAQSLAVALPLQTKADANRTAPSGSEYRHPGASDRPQPTAMNSIVMETGNTKNSALMAKKAPTMPKPQWHPPWKLYRVISGHLGWVRCIAVEPGNQWFVTGSADRTIKIWDLASGKLKLSLTGHISTVRGVIVSTRSPYLFSCGEDKQVKCWDLEYNKVIRHYHGHLSAVYGLDLHPTIDVLVTCSRDSTARIWDVRTKASVHTLSGHTNAVATVRCQAAEPQIITGSHDTTIRLWDLVAGKTRVTLTNHKKSVRAVVLHPRHYTFASGSPDNIKQWKFPDGSFIQNLSGHNAIINTLTVNSDGVLVSGADNGTMHLWDWRTGYNFQRVHAAVQPGSLDSESGIFACAFDQSESRLLTAEADKTIKVYREDDTATEETHPVSWKPEIIKRKRF [PLRG1]”, the melting temperature with HeLa Kyoto [1] (cell cycle stage: G1/S) and in the data set on HeLa Kyoto [1] (cell cycle stage: mitosis) was 50.6 °C in each case. Also, the “solubility in G1/S (log2)” value in the data set with HeLa Kyoto [2] is -0.776. Besides, in the data set on HeLa Kyoto [3], the “solubility change mitosis (log2)” value was found to be 0.247. The thermal stability score is -0.0826 with HeLa Kyoto [4] (setting [5]) and -5.45 in the data set on HeLa Kyoto [4] (cell cycle stage: mitosis).

Take “MVEKEEAGGGISEEEAAQYDRQIRLWGLEAQKRLRASRVLLVGLKGLGAEIAKNLILAGVKGLTMLDHEQVTPEDPGAQFLIRTGSVGRNRAEASLERAQNLNPMVDVKVDTEDIEKKPESFFTQFDAVCLTCCSRDVIVKVDQICHKNSIKFFTGDVFGYHGYTFANLGEHEFVEEKTKVAKVSQGVEDGPDTKRAKLDSSETTMVKKKVVFCPVKEALEVDWSSEKAKAALKRTTSDYFLLQVLLKFRTDKGRDPSSDTYEEDSELLLQIRNDVLDSLGISPDLLPEDFVRYCFSEMAPVCAVVGGILAQEIVKALSQRDPPHNNFFFFDGMKGNGIVECLGPK [SAE1]”: the melting temperature is 52.4 °C in the data set with HeLa Kyoto [1] (cell cycle stage: G1/S) and 52.3 °C in the data set with HeLa Kyoto [1] (cell cycle stage: mitosis). For the same sequence, the “solubility in G1/S (log2)” value with HeLa Kyoto [2] stood at 0.0883. Also, the “solubility change mitosis (log2)” value in the data set on HeLa Kyoto [3] is -0.153. For the same sequence, the thermal stability score came to 0.0359 in the data set on HeLa Kyoto [4] (setting [5]) and 0.096 in the data set with HeLa Kyoto [4] (cell cycle stage: mitosis).

With “MVGEEKMSLRNRLSKSRENPEEDEDQRNPAKESLETPSNGRIDIKQLIAKKIKLTAEAEELKPFFMKEVGSHFDDFVTNLIEKSASLDNGGCALTTFSVLEGEKNNHRAKDLRAPPEQGKIFIARRSLLDELLEVDHIRTIYHMFIALLILFILSTLVVDYIDEGRLVLEFSLLSYAFGKFPTVVWTWWIMFLSTFSVPYFLFQHWATGYSKSSHPLIRSLFHGFLFMIFQIGVLGFGPTYVVLAYTLPPASRFIIIFEQIRFVMKAHSFVRENVPRVLNSAKEKSSTVPIPTVNQYLYFLFAPTLIYRDSYPRNPTVRWGYVAMKFAQVFGCFFYVYYIFERLCAPLFRNIKQEPFSARVLVLCVFNSILPGVLILFLTFFAFLHCWLNAFAEMLRFGDRMFYKDWWNSTSYSNYYRTWNVVVHDWLYYYAYKDFLWFFSKRFKSAAMLAVFAVSAVVHEYALAVCLSFFYPVLFVLFMFFGMAFNFIVNDSRKKPIWNVLMWTSLFLGNGVLLCFYSQEWYARQHCPLKNPTFLDYVRPRSWTCRYVF [SOAT1]”, the results for the melting temperature in the data set with HeLa Kyoto [1] (cell cycle stage: G1/S) and with HeLa Kyoto [1] (cell cycle stage: mitosis) were 52.2 °C and 52 °C, respectively. Moreover, the “solubility in G1/S (log2)” value in the data set with HeLa Kyoto [2] is -0.292. In the data set with HeLa Kyoto [3], the “solubility change mitosis (log2)” value was -0.0778. Further, the thermal stability score with HeLa Kyoto [4] (setting [5]) stood at 0.192; in the data set on HeLa Kyoto [4] (cell cycle stage: mitosis), 0.0734.

For “MVGRNSAIAAGVCGALFIGYCIYFDRKRRSDPNFKNRLRERRKKQKLAKERAGLSKLPDLKDAEAVQKFFLEEIQLGEELLAQGEYEKGVDHLTNAIAVCGQPQQLLQVLQQTLPPPVFQMLLTKLPTISQRIVSAQSLAEDDVE [TOMM20]”, the melting temperature with HeLa Kyoto [1] (cell cycle stage: G1/S) is 49.7 °C; in the data set on HeLa Kyoto [1] (cell cycle stage: mitosis), 51.7 °C. Further, in the data set on HeLa Kyoto [2], the “solubility in G1/S (log2)” value turned out to be 0.747. In the data set with HeLa Kyoto [3], the “solubility change mitosis (log2)” value stood at 0.294. In addition, the thermal stability score in the data set on HeLa Kyoto [4] (setting [5]) was -2.96; in the data set with HeLa Kyoto [4] (cell cycle stage: mitosis) it was -4.96.

As to “MVGSLNCIVAVSQNMGIGKNGDLPWPPLRNEFRYFQRMTTTSSVEGKQNLVIMGKKTWFSIPEKNRPLKGRINLVLSRELKEPPQGAHFLSRSLDDALKLTEQPELANKVDMVWIVGGSSVYKEAMNHPGHLKLFVTRIMQDFESDTFFPEIDLEKYKLLPEYPGVLSDVQEEKGIKYKFEVYEKND [DHFR]”, the melting temperature in the data set with HeLa Kyoto [1] (cell cycle stage: G1/S) was determined as 47.9 °C; in the data set on HeLa Kyoto [1] (cell cycle stage: mitosis) it was 49.1 °C. Further, in the data set with HeLa Kyoto [2], the “solubility in G1/S (log2)” value came to 0.294. The “solubility change mitosis (log2)” value in the data set with HeLa Kyoto [3] was -0.139. The thermal stability score in the data set on HeLa Kyoto [4] (setting [5]) was 1.37; in the data set on HeLa Kyoto [4] (cell cycle stage: mitosis), 2.73.

For the sequence “MVHCSCVLFRKYGNFIDKLRLFTRGGSGGMGYPRLGGEGGKGGDVWVVAQNRMTLKQLKDRYPRKRFVAGVGANSKISALKGSKGKDCEIPVPVGISVTDENGKIIGELNKENDRILVAQGGLGGKLLTNFLPLKGQKRIIHLDLKLIADVGLVGFPNAGKSSLLSCVSHAKPAIADYAFTTLKPELGKIMYSDFKQISVADLPGLIEGAHMNKGMGHKFLKHIERTRQLLFVVDISGFQLSSHTQYRTAFETIILLTKELELYKEELQTKPALLAVNKMDLPDAQDKFHELMSQLQNPKDFLHLFEKNMIPERTVEFQHIIPISAVTGEGIEELKNCIRKSLDEQANQENDALHKKQLLNLWISDTMSSTEPPSKHAVTTSKMDII [GTPBP10]”, the values for the melting temperature in the data set on HeLa Kyoto [1] (cell cycle stage: G1/S) and in the data set with HeLa Kyoto [1] (cell cycle stage: mitosis) were 49.4 °C and 50.8 °C, respectively. Further, the “solubility in G1/S (log2)” value with HeLa Kyoto [2] is 0.217. Moreover, in the data set on HeLa Kyoto [3], the “solubility change mitosis (log2)” value was 0.0276. Besides, the thermal stability score with HeLa Kyoto [4] (setting [5]) is -0.944; in the data set with HeLa Kyoto [4] (cell cycle stage: mitosis) it was 0.176.

As for “MVIRVYIASSSGSTAIKKKQQDVLGFLEANKIGFEEKDIAANEENRKWMRENVPENSRPATGYPLPPQIFNESQYRGDYDAFFEARENNAVYAFLGLTAPPGSKEAEVQAKQQA [SH3BGRL]”, the melting temperature is 53.2 °C in the data set with HeLa Kyoto [1] (cell cycle stage: G1/S) and 53 °C with HeLa Kyoto [1] (cell cycle stage: mitosis). The “solubility in G1/S (log2)” value in the data set with HeLa Kyoto [2] came to 0.375. Further, the “solubility change mitosis (log2)” value with HeLa Kyoto [3] is -0.0943. Besides, the values for the thermal stability score in the data set with HeLa Kyoto [4] (setting [5]) and in the data set on HeLa Kyoto [4] (cell cycle stage: mitosis) were -0.605 and -2.76, respectively.

Regarding “MVKLAAKCILAGDPAVGKTALAQIFRSDGAHFQKSYTLTTGMDLVVKTVPVPDTGDSVELFIFDSAGKELFSEMLDKLWESPNVLCLVYDVTNEESFNNCSKWLEKARSQAPGISLPGVLVGNKTDLAGRRAVDSAEARAWALGQGLECFETSVKEMENFEAPFHCLAKQFHQLYREKVEVFRALA [IFT27]”, the figures for the melting temperature in the data set on HeLa Kyoto [1] (cell cycle stage: G1/S) and in the data set on HeLa Kyoto [1] (cell cycle stage: mitosis) were 52.3 °C and 53.7 °C, respectively. Besides, the “solubility in G1/S (log2)” value in the data set with HeLa Kyoto [2] came to 0.371. The “solubility change mitosis (log2)” value with HeLa Kyoto [3] was -0.134. For the same sequence, the thermal stability score in the data set on HeLa Kyoto [4] (setting [5]) is -0.15; in the data set with HeLa Kyoto [4] (cell cycle stage: mitosis) it was -0.857.

Source of the values: the supplement of paper PMC5998384.
